From article PMC3285272 come the findings set out here.

This assay deals with S. cerevisiae Arf1 (residues 18–181) with a C-terminal GST tag (S. cerevisiae) (UniProt P11076). As to the kind of experiment: pull-down.
S. cerevisiae Arf1 (residues 18–181) with a C-terminal GST tag (S. cerevisiae), sequence (P11076 18-181): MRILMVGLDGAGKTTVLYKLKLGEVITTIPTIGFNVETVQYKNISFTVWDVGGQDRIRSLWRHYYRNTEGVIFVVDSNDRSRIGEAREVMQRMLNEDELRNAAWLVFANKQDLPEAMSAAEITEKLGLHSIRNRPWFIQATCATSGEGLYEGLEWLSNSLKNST

Take “γζ-COP dimer with full-length γ-COP L128E (from UniProt P53620 1-874; P35604 1-177) (complex)”: the percent of the binding capacity of wild-type protein is 90%.
